Data: the DeepSol protein solubility set

test: soluble on expression in E. coli; label from the status in PepcDB or PDB records

| Sequence | soluble on expression in E. coli |
| --- | --- |
| MSLNSYVLGFKEIDKTKISMVGGKGANLGELSRVAGILIPEGFCVTTEAYKKIIEKSKEFNELLDELSCLRLEDGEKVYEVSKKIRMVIERISIPKDIVEEIDVYLTRLGEKDAYAVRSSATAEDLPTASFAGQQDTYLNIIGKKSILEHISKCWASLFTDRAVIYRLQNGFDHRKVYISVVIQKMIFPKAAGILFTADPVNSNRKVLSIDASFGLGEALVSGLVNADMYKVLSGKITDKKVSKKKLAIYASKDGGTKAQELEIEKQNKQVLTEEQILQLEHIGRSIEEHFSFPQDIEWCLNQDTFYILQSRPITTLYPIPKANDEENHVYISVGHQQMMTDPLKPLGMSLYELTSFGNRFKAGGRLFFDVTQMLASKDSRKMLLNNMEQHDPLMKDALVTIIERDFIKALPSDNGNQSKSNKGVSAGESENQIENNPTIVSDLINKNQASIEELKENIKTKSGLELIDFIRTDVEELKKILSDPQSSAVFMTAINASHWINEKMRDWLGEKNAADILSQSVPNNITSKMGLELLEIADVIRPYPEIIDYLQHVKDDNFLEEIVKFNGGHEVKNAILSYLSKYGMRCSGEIDITRTRLSEKPITLVPMILNNIKNFETGAANIKFQQGKQKALEKEQELLERLKQLPDGEQKAKETKRMIKLIRNFIGYREYPKYGMVNRYFIYKQALMKEAEKLANIGAIHEKEDIYYLTFEELREVIRTKKVDYSIINKRKNEHKLYEKLIPPRVITSDGEIVEGEYKRENVPEGAIIGLSVSSGVIEGRARVILNMEDANLEAGDILVTSFTDPSWTPLFVSIKGLVTEVGGLMTHGAVIAREYGLPAVIGVENATKLIKDGQQIRVNGTEGYVEILEGHHHHHH | soluble |
| MTPRIEVAAPKEPITINMNVKIEHEIIIKADKDVEELLETRSDLFLEHHHHHH | not soluble |
| MEVYSKLRAPPSSRMILRLDGRGFHRLTESLDFDRPYDEAFRDLMIRTCLDLMEEFSPSLIYTFSDEINVLLDSVPFAGRVEKLDSVFSGFASSSFTRGALEAGFSPVKPVSFDCRVIPISSDIVPEYFRSRQDESWRNCLNSYAYWTLRREVGARRAAERLRGLKSDSLHDLLFERGVNISRVPAWQRRGVGVYRVPHRVRGYNPIRDEEVSAVRMRVKVDLELPLFTDEFFEGLMRLEHHHHHH | soluble |
| MKFKQIILAGAVLATSTFTSLTNAQAETGFRDVPSDHWSYNAIMGLKEKNIVAGYGNGMFGFGDNITRGQVARLIYAYLKPADEHNAPNPFTDVKGHMFEKEILSLSKAGIMNGFGDGKFGPDNVLTREQLAVVLTKAFNFKATSTTTFKDVDKNYWATNAISALQENKIAAGTGDNLFEPKNIVTREQYAQFLYNAMNTVEVKPELTPFGIPSSMITNDFYYNSNNWKNASPVLKKSVSNEAQNLITKINKKYNEDYKYESASVSSMGLPESVQLRTSNPNLGRVYDLGQGQFFVQGENEHDFYIMFIIDNATVELAKSWITLINSDLNLDKEINDVIAMPSQKARGRDYHTYLDKGKYQIELGTSPQTKGYDSLFIGIKRK | not soluble |
| MGHHHHHHSHMPARTDSVIIADQTPTPTRFLKNCEEVGLFNELASSFEHEFKKAADEDEKKARSRTVAKKLVAAAGPLDMSLPSTPDIKIKEEEPVEVDSSPPDSPASSPCSPPLKEKEVTPKPVLISTPTPTIVRPGSLPLHLGYDPLHPTLPSPTSVITQAPPSNRQMGSPTGSLPLVMHLANGQTMPVLPGPPVQMPSVISLARPVSMVPNIPGIPGPPVNSSGSISPSGHPIPSEAKMRLKATLTHQVSSINGGCGMVVGTASTMVTARPEQSQILIQHPDAPSPAQPQVSPAQPTPSTGGRRRRTVDEDPDERRQRFLERNRAAASRCRQKRKLWVSSLEKKAEELTSQNIQLSNEVTLLRNEVAQLKQLLLAHKDCPVTALQKKTQGYLESPKESSEPTGSPAPVIQHSSATAPSNGLSVRSAAEAVATSVLTQMA | soluble |
| MGSDKIHHHHHHMIIGMSIARMFSRCTPIPNLSVRYNLDLYHLEFPIMAFIRQEDFIDSIHQALQYIACYHSPDFLAAMHDAWQREPSPAARDAIGQILINSYLCAQGQRPLCQDTGIVVAFVSVGMNVQWQASMSLQEMVDEGVRRAYLDPDNRLRASIVRDPAGKRLNTRDNTPSVVHVDMVPGDTVEIHIAAKGGGSENKSKLAMLEPSDDLIEWVLKTVPEMGAGWCPPGVLGIGIGGTAEKAVLLAKQSLFAPIDIQALRARGPQTRAEELRLEIYEKVNRLGIGAQGLGGLTTVLDVKILEAPTHATSLPVAIIPNCAATRHVHFTLDGTGPARLPAPRLEDWPRVALDASTPMRRVDLGKVTREDVISWQPGEKLLLSGKLLTGRDAAHKRIVDLIARGEPMPEGLDFTNRFIYYVGPVDPVGDEIIGPAGPTTATRMDRFTETMLTQTGLLGMIGKAERGEATVQSIKRHQSVYLIAIGGAAYLISQAIKASRIVAFADLGMEAIYEFTVEDMPVTVAVDSRGHAVHDTGPAEWRPRIANIPIFSE | not soluble |
| SETQSFVVSVAGSDRVGIVHDFSWALKNISANVESSRMACLGGDFAMIVLVSLNAKDGKLIQSALESALPGFQISTRRASSVAERHVSPDTREYELYVEGPDSEGIVEAVTAVLAKKGANIVELETETLPAPFAGFTLFRMGSRVAFPFPLYQEVVTALSRVEEEFGVDIDLEEVVEGEDSEEDDDSPNSPVGRH | soluble |
| MPNSKKSKKGGDQQHVTIVPVEPVKGENVDTVAYSSRSRISGESGHLIADVQSPHAKKHRIIFDRDHNVFEFRLLDGSAKHIIVYRLDELLSTTCYPFKIKNGVPIIPTKPTTSDKTLYFNFVYKKDKQKWRLKQIPVIFYTTSERDYWHSLIDTTLRRVKNRPKNIIIFINPFGGNGKAQKIFKDNVDAFFWLTPGLRYKVVLTERANHARDYIVEMPPEQWSAIDGLVSVGGDGLFNELLSGALLRTQTDAGRNIDNPSSHLVTPHIRFGIIGAGSANSIVSTVHETNDHATSAVHIAIGSECNVDVCTVHQHQKLIRISANAISYGWLGDVLRDSEEYRCLGPIRYQWSALRTTIRHPIYRGMVQFSLSHKENVNPKDQLPPCLEPCPVCMKPQGNDKYDYHWHAEFTHVICCVIPTVTPFTPYGLAPFTGIGDGTLDLALVPRISRFHNMQFMRKVAMYGGKQLYELDPSLNCYRVTKWSYQPDADQEDPGVWNLDGEILEQPKDEPLHFKLHPQLISFFGRDAAMVKPTKRSFIKKRKSSIVYQ | not soluble |
| MGHHHHHHSHMMSPGLLLKPWWGGAQSEMGRNGMLEGCSVMSVGASRLGEGRVRPRAHSRRPVTRPRWRAAGPCTGTCQGGSHSRTLVLRLKAVSTTPTSANDLVQIKFRRDGGNRVVEALNLSEKRKDRKALCFSQSLHLQGEEIELTALSRSFQLRNVYFMISNI | not soluble |
| MGSDKIHHHHHHMTLTANNKKRAVLRVRPGQFVVTPAIEQVAIRALRYLTSGFAIHLRGPAGTGKTTLAMHLANCLDRPIMLIFGDDEFKSSDLIGSESGYTHKKLLDNYIHSVLKVEDEFKQNWVDSRLTLACREGFTLVYDEFNRSRPEVNNVLLSALEEKILTLPPSSNQPEYLHVNPQFRAIFTSNPEEYCGVHSTQDALMDRLVTINMPEPDELTQTEILAQKTALNRADALLVVQLVKAFRSRTGGEKTSGLRSCLMIAKVCAEHNILVAPESSDFREICADVLFNRTNWSASEATTIFLELLNHLNLEEIEEFKNSITSEDTDAIADEDHNAINESGFPTIIDSQFGTLDSEVLEQPGVEDSIPFEREIYLYLQQYKSAALALLQQEFELSRTVATNALNSLEQKGLVSKNNHVYTIEEPNQP | not soluble |
| MEDHSSSIAVHKLDGDLLLRTAEIGDADMIAAYFQSNRDYLKPFEPKREEAFFSVNGWLQKLIKLNELHRMGLGYYCLLIHVDT | not soluble |
| MGSDKIHHHHHHMLKRLLDYNEGEEFDLVLMVKNSELRQDKRGKHYLLMQLADSSGSIRANYWQAKAEDASRFNAGTVVEASGMIEDYHNHDQIKLFSIHPVSPDDQADLSQLVATAPEKPAEMEKEIKDFVAQIDNKNWHDLVDFLLKKWSSRFFAYPAGKSNHHAYKGGLAFHTLTMLKDARGLADNYPAVNRSLLYAGCILHDMGKVLELSGPVATQYTAEGNLVGHLVLIDEQLMLAAQELKIDLASEDLLLLRHMVLSHHGRYEYGSPKLPALLEAELLHRIDDLDAAVNAITTVNCPRPSRGNSPRR | not soluble |
| MVKGDITTAFIAEEYPDGFQGAVLDEPTLRRVAAAAAAMNRVAEIRRTRISGTMNNHERHVGVDWVVALQGESYHVSIAADREGSTVSFSDGSSLRVTSDWTPGQPLEHHHHHH | not soluble |
| MMNPLIIKLGGVLLDSEEALERLFSALVNYRESHQRPLVIVHGGGCVVDELMKGLNLPVKKKNGLRVTPADQIDIITGALAGTANKTLLAWAKKHQIAAVGLFLGDGDSVKVTQLDEELGHVGLAQPGSPKLINSLLENGYLPVVSSIGVTDEGQLMNVNADQAATALAATLGADLILLSDVSGILDGKGQRIAEMTAAKAEQLIEQGIITDGMIVKVNAALDAARTLGRPVDIASWRHAEQLPALFNGMPMGTRILA | soluble |
| MPALPPVYTPSGAPSSVHAPPAVPPVPVPTQPLRSEYQTSNDACIKRLEELNIAPAAKLYPTPTEPGKCGVEAEIQTNVFGIEMHQDSLFYQYSVNITTELKNGKEVTFTKKGKDDFVVTERHDKCCAILFRALGDYEEFFKTSDSCLIYDGQSILFSNVDLFQGFREGAVKTKYMQLDGGEMDHKDLKSLPCIKLEVFPTKNPAVKFTREAVARRATDSNLDSVSLAYQQILELALTQPCLRNTARYVVFDHGKMFFIDPLGEGFEKCDVVDVGDGKQVVPGLKKTINFIEGPYGRGRSNPSVVIDGMKVAFHKNQPILDKLKEITTQPVEHGLKGLEKDRCAAVIKGLDCYSTYGGRERHHKIEGIHHEGARNARFELNDGGSCTVAQYFEDVYNITLRYPDTNLIVSKERGNINFYPMELLKISSHQRVQIPQLTSAQSQKTTKESAVLPDVRQRLILTGKNAAQISSDNEVLGKMGVSVCEDPLMVKGRSIPAVKLANAEIGANPINVKDNKWRANRFTRPATAPNVWAMYVVGTASTRITLDTLKKFADEFAAMCKSKGVNMPAPADISLIHMDAIESRLYDATKANCTFVFIITDDSITTLHQRYKMIEKDTKMIVQDMKLSKALSVINAGKRLTLENVINKTNVKLGGSNYVFVDAKKQLDSHLIIGVGISAPPAGTKYAMENKGVLNPNVIGYAYNAQHNQEFSGDFVLNSASQDTLAPIEDIVMHSLNEYQKFHDGGLPRRVIVYRTGTSEGNHGSIMAYEIPLARAAMRDFSPDIQLVYIVVSKDHSFRFFKPDLASLASRPQATSSTASRHSAMPAAPKAWDLNIAPGILVDSIVTNPACKQFFLNSHITLQGTAKTPLYTVLADDAKVSMTALEDITYKLCHLHQIVGLPTSLPTPLYVANEYAKRGRNLWNEAVALNNVPTVSGPEADRLKELTKSICYKASGDLTGRRVNA | not soluble |
| MSLDGGYRTLAAAELFKRYGHLISPVSGPIAYLHPMPGRNAGMRHMYVAGYLVCPPSAPRENRFDKLCSGKGASDAQARASALAEALERFSGVYQGDEAALRGSLAQLSAHAPPGSGPIDVNALQQYSDRQFERRERHNATTDDPRKQVPRRFTRDSVIDWTPAWSIATGARRLVPLAYCYAETPASSGADYCVHNPNGCAAGACIEEAILQGLLELVERDAVAIWWYNMLRRPAVDIESFGDPYFDALAADYASLGWRLWALDITHDLRIPVFVALARETATGRFSIGFGCHPDSRIALQRALTEVNQLLDVGASAPPPWDVDKLPDDAFLHPDPALPPVRAPARAPHGRCDLKRDIEDCVARLAAAGIDTLVVDKTRPDIGLPVVQVIAPGLCHFWPRFGAPRLYSVPVAQRWRERPRDEDALNRAEGHHHHHH | not soluble |
